The target in assay [1] is T1, Cynomolgus monkey ANGPTL4(26-406)-FLAG-His6-Avi (cynomolgus monkey, biotin on the C-terminal Avi tag (BirA) where the protein is immobilised).
T1 construct: also called Cyno ANGPTL4 (26-406)
T1 chain: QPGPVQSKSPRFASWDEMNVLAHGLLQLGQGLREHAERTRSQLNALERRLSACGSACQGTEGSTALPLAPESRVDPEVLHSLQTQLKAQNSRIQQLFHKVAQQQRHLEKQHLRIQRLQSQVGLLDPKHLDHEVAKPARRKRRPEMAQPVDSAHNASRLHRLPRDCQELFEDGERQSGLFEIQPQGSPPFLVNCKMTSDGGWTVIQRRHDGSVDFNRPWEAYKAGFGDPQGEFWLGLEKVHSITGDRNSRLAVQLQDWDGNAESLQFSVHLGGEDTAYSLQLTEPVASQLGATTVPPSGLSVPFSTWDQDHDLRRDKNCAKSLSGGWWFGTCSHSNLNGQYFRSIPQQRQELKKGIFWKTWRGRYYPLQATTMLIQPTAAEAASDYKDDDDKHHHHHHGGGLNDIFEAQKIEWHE
Nature of the assay: SET (solution equilibrium titration), MSD detection, IgG. As to the method:
SET assays were performed as follows. In a 96-well polypropylene plate, a constant concentration of ANGPTL4 antibody (10 pM) was mixed with different concentrations of non-biotinylated human, cyno, mouse, or rat full-length ANPGLT4 protein, or human ANGPTL4 N-terminal domain protein (5-fold serial dilution ranging from 0.01 pM to 100 nM) in SET buffer (PBS, pH 7.4 without CaCl₂) or MgCl₂, 0.5% w/v bovine serum albumin (fatty acid free) and 0.02% v/v Tween-20). The final reaction volume was 80 μL. The plate was sealed using an adhesive film and incubated at 22° C. for 14 hours with constant shaking (300 rpm). During the same period of time, a 384-well streptavidin-coated Meso Scale Discovery (MSD) plate was blocked by incubating the plate with 50 μL blocking buffer (PBS, pH 7.4, 5% w/v bovine serum albumin) per well at 4° C. The blocked MSD plate was washed 3 times with wash buffer (PBS, pH 7.4 and 0.05% v/v Tween-20) using a plate washer (BioTek). Biotinylated ANGPTL4 (full-length human, cyno, mouse, or rat ANGPTL4, or human ANGPTL4 N-terminal domain) protein (1 nM, 15 μL per well) was immobilized on the surface of the streptavidin-coated MSD plate by incubation at 22° C. for one hour with constant shaking (600 rpm). The plate was then washed 3 times as described earlier.
The equilibrium binding reactions (15 μL per well) were applied to the MSD plate with immobilized ANGPTL4 and incubated for 20 min at 22° C. The unbound material was removed by washing the plate 3 times with wash buffer, and the captured antibody was detected by adding 15 μL per well of a 1:500 dilution of Sulfo-tagged goat anti-human IgG (Meso Scale Discovery). The plate was then incubated for one hour with constant shaking (600 rpm). The plate was washed 3 times, and then 15 μL/well of 1× MSD read buffer T was added and the plate was developed using a Sector Imager 6000 (Meso Scale Discovery). The data were transferred to Microsoft Excel for analysis and plotted using GraphPad Prism v6. The KD values were determined by fitting the data to the following equation: […]
where Bₘₐₓ is the signal when no ANGPTL4 protein is present in solution, CAb is the constant concentration of ANGPTL4 antibody in solution, CAg is the concentration of ANGPTL4 in solution, and KD is the equilibrium dissociation constant.

Assay [2] deals with T2, Human ANGPTL4(26-406)-FLAG-His6-Avi (human, UniProt Q9BY76 24-406, biotin on the C-terminal Avi tag (BirA) where the protein is immobilised).
T2 construct: the text calls it 20 amino acids), then QP, ANGPTL4 26-406 and FLAG-His6-Avi; the signal peptide is left out here; also called full length human ANGPTL4; hANGPTL4
T2 sequence: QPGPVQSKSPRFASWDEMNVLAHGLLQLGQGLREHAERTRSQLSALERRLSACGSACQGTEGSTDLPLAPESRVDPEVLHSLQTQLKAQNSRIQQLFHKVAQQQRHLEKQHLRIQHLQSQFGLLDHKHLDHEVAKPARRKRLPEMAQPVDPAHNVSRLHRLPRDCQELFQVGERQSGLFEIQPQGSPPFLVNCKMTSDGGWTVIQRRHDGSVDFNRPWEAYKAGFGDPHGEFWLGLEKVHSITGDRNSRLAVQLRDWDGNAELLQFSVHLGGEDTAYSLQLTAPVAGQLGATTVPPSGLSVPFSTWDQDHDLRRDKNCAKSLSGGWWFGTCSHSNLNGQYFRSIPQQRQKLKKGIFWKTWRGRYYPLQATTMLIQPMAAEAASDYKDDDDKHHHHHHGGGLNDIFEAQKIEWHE
Nature of the assay: Octet (ForteBio) kinetics, biotinylated antigen on streptavidin sensor, IgG in solution. The method, then: Dissociation constants (KD) were determined for selected antibodies of the invention by using an Octet (ForteBio) kinetic binding assay. ForteBio 10× Kinetics Buffer (ForteBio, catalog number 18-5032) was diluted 10-fold with DPBS (Life Technologies, catalog number 14190-136), and the resulting solution was added (0.2 ml per well) to a 96-well plate (Greiner, catalog number 65520). Streptavidin sensors (ForteBio, catalog number 18-5020) were immersed in the solution and equilibrated for at least 10 min at room temperature. In a second 96-well plate (Greiner, catalog number 65520), sensors were washed in 1× Kinetics buffer, and then immersed in 200 ul of 25 nM biotinylated human ANGPTL4 or a biotinylated reference protein (for background subtraction) for 1000 sec at […] room temperature. […] The sensors were then transferred to a well containing 200 μl 1× Kinetics buffer, and antibody dissociation was monitored for 1200 seconds. Background-corrected association and dissociation curves were globally fitted by Octet Software (ForteBio) to generate association (kₐ) and dissociation (kd) rate constants, which in turn were used to calculate equilibrium dissociation constants (KD).
For orientation: BLI is a label-free optical method that tracks binding on a fibre tip over time.

Assay [3] deals with T3, P22 (human).
T3 construct: linear 15-mer from the N-terminal coiled coil domain of human ANGPTL4
T3 peptide: LPLAPESRVDPEVLH
In words: linear peptide array on glass (JPT). As to the method:
(§1) The ability of selected antibodies of invention, namely NEG276 and NEG318, to bind to linear 15-amino-acid peptides derived from the N-terminal coiled coil domain of human ANGPTL4 was tested. The peptides were immobilized on a glass surface, and the ability of NEG276 and NEG318 to bind to the immobilized peptides was evaluated using experimental methods optimized for linear peptide epitope mapping at JPT Peptide Technologies (Berlin, Germany).

In assay [4] the target is T4, P2 (human).
T4 construct: linear 15-mer from the N-terminal coiled coil domain of human ANGPTL4
T4 peptide: QSKSPRFASWDEMNV
In words: linear peptide array on glass (JPT). As to the method: as §1

Assay [5] deals with T5, P16 (human).
T5 construct: linear 15-mer from the N-terminal coiled coil domain of human ANGPTL4; printed with Ser where ANGPTL4 has Cys
T5 peptide: RRLSASGSASQGTEG
In words: linear peptide array on glass (JPT). The method, then:
as §1

As usually defined, the Kd is the free concentration of one partner at which half of the binding sites on the other are occupied at equilibrium, for simple one-to-one binding. A word on the koff: it is the first-order rate constant of dissociation. Broadly, the kon is the second-order rate constant of association.

B1: NEG315 (antibody, human IgG1, kappa, V domains shown)
VH: QVQLVQSGAEVKKPGASVKVSCKASGYTFTNYWITWVRQAPGQGLEWMGDFYPGGGNTNYNAKLQGRVTLTVDTSTSTAYMELRSLRSDDTAVYYCARSPPQVAPFDYWGQGTLVTVSS
VL: DIQMTQSPSSLSASVGDRVTITCQASEYIYNWLGWYQQKPGKAPKLLISGASGLETGVPSRFSGSGSGKDYTFTISSLQPEDIATYYCQQYWSTPWTFGQGTKLEIKR
notes: humanized, hIgG1/kappa, parental antibody 37P1
B1 came in with a dissociation constant (Kd) in assay [1] of 0.021 nM. In assay [2], this molecule had a Kd of 0.029 nM, a koff of 7.9e-06 s⁻¹ and a kon of 280000 M⁻¹ s⁻¹.

B2: NEG319 (antibody, human IgG1, kappa, V domains shown)
VH: QVQLVQSGAEVKKPGASVKVSCKASGYTFTSFWITWVRQAPGQGLEWMGDIYPGGANTNYNEKLQGRVTLTVDTSTSTAYMELRSLRSDDTAVYYCARSPPQVGPFDYWGQGTLVTVSS
VL: DIQMTQSPSSLSASVGDRVTITCQASEYIINWLAWYQQKPGKAPKLLISGATGLETGVPSRFSGSGSGKDYTFTISSLQPEDIATYYCQQYWSIPWTFGQGTKLEIKR
notes: humanized, hIgG1/kappa, parental antibody 14P18
As for B2, the Kd in assay [1] came out at 0.008 nM. In assay [2], this molecule displayed a Kd of 0.036 nM, a koff of 1e-05 s⁻¹ and a kon of 280000 M⁻¹ s⁻¹.

B3: NEG318 (antibody, human IgG1, kappa, V domains shown)
VH: QVQLVQSGAEVKKPGASVKVSCKASGYTFTSFWITWVRQAPGQGLEWMGDIYPGGATTNYNEKLQGRVTLTVDTSTSTAYMELRSLRSDDTAVYYCARSPPQVGPFDYWGQGTLVTVSS
VL: DIQMTQSPSSLSASVGDRVTITCQASDYIYHWLAWYQQKPGKAPKLLISGASSLETGVPSRFSGSGSGKDYTFTISSLQPEDIATYYCQQYWSIPWTFGQGTKLEIKR
notes: as for B2
Turning to B3, the Kd in assay [1] stood at 0.017 nM; in assay [2] it was 0.045 nM. Moreover, the binding result in assay [3], in assay [4] and in assay [5] was “no binding” throughout. Further, the koff in assay [2] is 1.2e-05 s⁻¹. In addition, in assay [2], the kon is 270000 M⁻¹ s⁻¹.

B4: NEG313 (antibody, human IgG1, kappa, V domains shown)
VH: QVQLVQSGAEVKKPGASVKVSCKASGYTFNNYWITWVRQAPGQGLEWMGDFYPGGGSTNYNAKLQGRVTLTVDTSTSTAYMELRSLRSDDTAVYYCARSPPQVAPFDYWGQGTLVTVSS
VL: DIQMTQSPSSLSASVGDRVTITCQASDYIYHWLGWYQQKPGKAPKLLISGASGLETGVPSRFSGSGSGKDYTFTISSLQPEDIATYYCQQYWSTPWTFGQGTKLEIKR
notes: as for B1
Turning to B4, in assay [1], the affinity, expressed as Kd, was 0.015 nM. In assay [2], this molecule returned a Kd of 0.04 nM, a koff of 1.1e-05 s⁻¹ and a kon of 280000 M⁻¹ s⁻¹.

B5: NEG276 (antibody, human IgG1, kappa)
heavy: not shown
light: EIVMTQSPATLSVSPGERATLSCKASQDIGSNLNWLQQKPGQAPRRLIYAVSNRGPGIPARFSGSRSGSEYTLTISSLQSEDFAVYYCLQYASSPWTFGQGTKVEIKRTVAAPSVFIFPPSDEQLKSGTASVVCLLNNFYPREAKVQWKVDNALQSGNSQESVTEQDSKDSTYSLSSTLTLSKADYEKHKVYACEVTHQGLSSPVTKSFNRGEC
notes: humanized, hIgG1/kappa, parental antibody 19C16
As for B5, the Kd in assay [1] worked out at 0.014 nM; in assay [2], 0.023 nM. In addition, the binding result in assay [3], in assay [4] and in assay [5] was “no binding” in each case. The same molecule registered a koff in assay [2] of 8e-06 s⁻¹. Also, in assay [2], the kon was 340000 M⁻¹ s⁻¹.

B6: NEG276-LALA (antibody, human IgG1, kappa, L234A L235A)
heavy: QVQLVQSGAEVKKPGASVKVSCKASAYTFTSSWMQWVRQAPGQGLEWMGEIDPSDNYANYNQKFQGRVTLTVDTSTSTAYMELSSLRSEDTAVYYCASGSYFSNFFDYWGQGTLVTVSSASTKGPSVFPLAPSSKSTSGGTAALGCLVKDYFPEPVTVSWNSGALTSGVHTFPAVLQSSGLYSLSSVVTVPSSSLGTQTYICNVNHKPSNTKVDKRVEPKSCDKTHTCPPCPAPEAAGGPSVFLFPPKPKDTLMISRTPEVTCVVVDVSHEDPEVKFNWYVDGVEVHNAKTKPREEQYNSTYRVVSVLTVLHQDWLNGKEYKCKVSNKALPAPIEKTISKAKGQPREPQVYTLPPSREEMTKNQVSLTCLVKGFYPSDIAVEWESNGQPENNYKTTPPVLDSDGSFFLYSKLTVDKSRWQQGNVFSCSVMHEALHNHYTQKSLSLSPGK
light: EIVMTQSPATLSVSPGERATLSCKASQDIGSNLNWLQQKPGQAPRRLIYAVSNRGPGIPARFSGSRSGSEYTLTISSLQSEDFAVYYCLQYASSPWTFGQGTKVEIKRTVAAPSVFIFPPSDEQLKSGTASVVCLLNNFYPREAKVQWKVDNALQSGNSQESVTEQDSKDSTYSLSSTLTLSKADYEKHKVYACEVTHQGLSSPVTKSFNRGEC
In turn, B6 had a Kd in assay [1] of 0.007 nM.

B7: NEG278 (antibody, human IgG1, kappa, V domains shown)
VH: QVQLVQSGAEVKKPGASVKVSCKASAYTFTSSWMQWVRQAPGQGLEWMGEIDPSDNYANYNQKFQGRVTLTVDTSTSTAYMELSSLRSEDTAVYYCASGSYFSNFFDYWGQGTLVTVSS
VL: EIVMTQSPATLSVSPGERATLSCKASQDIGSNLNWLQQKPGQAPRRLIYAASVREPGIPARFSGSRSGSEYTLTISSLQSEDFAVYYCLQYASSPWTFGQGTKVEIKR
notes: as for B5
B7: the Kd in assay [1] was found to be 0.02 nM. Besides, in assay [2], the kon was found to be 300000 M⁻¹ s⁻¹.

B8: NEG310 (antibody, human IgG1, kappa, V domains shown)
VH: QVQLVQSGAEVKKPGASVKVSCKASGYTFTSYTMHWVRQAPGQGLEWMGYINPSSGYTKYNQKFQGRVTMTADKSTSTAYMELSSLRSEDTAVYYCAEGWLLLAMDYWGQGTLVTVSS
VL: EAVVTQSPATLSLSPGERATLSCRSSTGAVTTSNYAIWVQEKPGQAPRGLIGGTNNRAPGIPARFSGSLSGDDATLTISSLQPEDFAVYFCALWYSDHWVFGQGTKVEIKR
notes: humanized, hIgG1/kappa, parental antibody 17B1
In assay [1], B8 had a Kd of 0.022 nM. In assay [2], binding was characterised by a dissociation constant (Kd) of 0.025 nM, the koff turned out to be 1.1e-05 s⁻¹ and the kon came out at 220000 M⁻¹ s⁻¹.

The values above are taken from patent publication US20220213181A1 (Novartis, published 2022).
